For 94 variants, protein stability index results are on record in the supplement of paper PMC10567573.

B1: RAB40B (parent)
chain: YSLTTSSTHKRSSLRKVKLVRPPQ
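Also: lentivirally expressed fusions sorted by FACS into six bins by GFP to DsRed ratio, PSI derived from sequencing read proportions per bin multiplied by bin number.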

The variants in the data set derive from B1. The data set can be described thus: protein stability index of a GFP-peptide fusion (GPS, HEK-293T) (PSI 1-6); higher = more stable. To be noted: c terminus: a fixed tail appended.
For the variant YSLTTSSTHKRSSLRKLKLVRPPQ [V17L], the protein stability index came out at 2.77.

For YSLTTSSTHKRSSLRKTKLVRPPQ [V17T], the protein stability index stood at 3.09.

For the variant YSLTTSSTHKRSSLRKNKLVRPPQ [V17N], the protein stability index was determined as 3.39. In the case of YSLTTSSTHKRSSLRKGKLVRPPQ [V17G] it was 3.12; in that of YSLTTSSTHKRSSLRKPKLVRPPQ [V17P], 3.13; in that of YSLTTSSTHKRSSLRKWKLVRPPQ [V17W], 2.53. In the case of YSLTTSSTHKRSSLRMVKLVRPPQ [K16M] it was 2.35; in that of YSLTTSSTHKRSSLRQVKLVRPPQ [K16Q], 3.08; in that of YSLTTSSTHKRSSLRDVKLVRPPQ [K16D], 3.59. In the case of YSLTTSSTHKRSSLRLVKLVRPPQ [K16L] it was 2.35. Consider YSLTTSSTHKRSSLRCVKLVRPPQ [K16C], for which the protein stability index was found to be 2.58. As to YSLTTSSTHKRSSLRIVKLVRPPQ [K16I], the protein stability index was found to be 1.95. For the variant YSLTTSSTHKRSSLRVVKLVRPPQ [K16V], the protein stability index came out at 2.1. In the case of YSLTTSSTHKRSSLRSVKLVRPPQ [K16S] it was 2.93; in that of YSLTTSSTHKRSSLRPVKLVRPPQ [K16P], 3.06; in that of YSLTTSSTHKRSSLREVKLVRPPQ [K16E], 3.52.

Consider YSLTTSSTHKRSSLRYVKLVRPPQ [K16Y], for which the protein stability index was 2.9. The same measure for YSLTTSSTHKRSSLRTVKLVRPPQ [K16T]: 3.03. The same measure for YSLTTSSTHKRSSLRRVKLVRPPQ [K16R]: 2.99; for YSLTTSSTHKRSSLRNVKLVRPPQ [K16N]: 3.19; for YSLTTSSTHKRSSLRHVKLVRPPQ [K16H]: 2.54. The same measure for YSLTTSSTHKRSSLRFVKLVRPPQ [K16F]: 2.13; for YSLTTSSTHKRSSLRWVKLVRPPQ [K16W]: 2.14; for YSLTTSSTHKRSSLRAVKLVRPPQ [K16A]: 2.93. For the variant YSLTTSSTHKRSSLRGVKLVRPPQ [K16G], the protein stability index was 2.81. Take YSLTTSSTHKRSSLRKVPLVRPPQ [K18P]: the protein stability index amounted to 3.47.

Regarding YSLTTSSTHKRSSLRKVYLVRPPQ [K18Y], the protein stability index worked out at 2.05. In the case of YSLTTSSTHKRSSLRKVELVRPPQ [K18E] it was 3.43.

For YSLTTSSTHKRSSLRKVCLVRPPQ [K18C], the protein stability index was 2.63. As for YSLTTSSTHKRSSLRKVGLVRPPQ [K18G], the protein stability index came to 2.81.

For YSLTTSSTHKRSSLRKVALVRPPQ [K18A], the protein stability index worked out at 3.2.

For the variant YSLTTSSTHKRSSLRKVFLVRPPQ [K18F], the protein stability index turned out to be 2.54. The same measure for YSLTTSSTHKRSSLRKVWLVRPPQ [K18W]: 2.32. YSLTTSSTHKRSSLRKVILVRPPQ [K18I]: the protein stability index came out at 2.34. As to YSLTTSSTHKRSSLRKVMLVRPPQ [K18M], the protein stability index is 2.22. The same measure for YSLTTSSTHKRSSLRKVRLVRPPQ [K18R]: 2.38. Consider YSLTTSSTHKRSSLRKVSLVRPPQ [K18S], for which the protein stability index amounted to 3.06.

As to YSLTTSSTHKRSSLRKVNLVRPPQ [K18N], the protein stability index was found to be 2.98.

Regarding YSLTTSSTHKRSSLRKVVLVRPPQ [K18V], the protein stability index was 2.68. On to YSLTTSSTHKRSSLRKVDLVRPPQ [K18D], for which the protein stability index amounted to 3.81. In the case of YSLTTSSTHKRSSLRKVHLVRPPQ [K18H] it was 3.71. As for YSLTTSSTHKRSSLRKVQLVRPPQ [K18Q], the protein stability index is 3.09. Consider YSLTTSSTHKRSSLRKVLLVRPPQ [K18L], for which the protein stability index stood at 2.49. Regarding YSLTTSSTHKRSSLRKVTLVRPPQ [K18T], the protein stability index turned out to be 2.81. The same measure for YSLTTSSTHKRSSLRKVKQVRPPQ [L19Q]: 2.33; for YSLTTSSTHKRSSLRKVKIVRPPQ [L19I]: 2.9.

Take YSLTTSSTHKRSSLRKVKTVRPPQ [L19T]: the protein stability index turned out to be 3.25. As for YSLTTSSTHKRSSLRKVKHVRPPQ [L19H], the protein stability index is 3.33. The same measure for YSLTTSSTHKRSSLRKVKMVRPPQ [L19M]: 3.13. The same measure for YSLTTSSTHKRSSLRKVKAVRPPQ [L19A]: 4.17; for YSLTTSSTHKRSSLRKVKWVRPPQ [L19W]: 3.15; for YSLTTSSTHKRSSLRKVKPVRPPQ [L19P]: 3.63.

In the case of YSLTTSSTHKRSSLRKVKCVRPPQ [L19C], the protein stability index was 3.37. Take YSLTTSSTHKRSSLRKVKVVRPPQ [L19V]: the protein stability index turned out to be 3.19. In the case of YSLTTSSTHKRSSLRKVKRVRPPQ [L19R], the protein stability index turned out to be 3.18. On to YSLTTSSTHKRSSLRKVKSVRPPQ [L19S], for which the protein stability index was 3.45. For YSLTTSSTHKRSSLRKVKKVRPPQ [L19K], the protein stability index was found to be 4.09. In the case of YSLTTSSTHKRSSLRKVKNVRPPQ [L19N], the protein stability index was found to be 3.39. Take YSLTTSSTHKRSSLRKVKEVRPPQ [L19E]: the protein stability index was 3.04. Consider YSLTTSSTHKRSSLRKVKDVRPPQ [L19D], for which the protein stability index came out at 3.71. YSLTTSSTHKRSSLRKVKGVRPPQ [L19G]: the protein stability index is 3.7. In the case of YSLTTSSTHKRSSLRKVKYVRPPQ [L19Y] it was 2.81; in that of YSLTTSSTHKRSSLRKVKFVRPPQ [L19F], 3.1; in that of YSLTTSSTHKRSSLMKVKLVRPPQ [R15M], 2.46.

YSLTTSSTHKRSSLFKVKLVRPPQ [R15F]: the protein stability index came out at 1.94.

Take YSLTTSSTHKRSSLQKVKLVRPPQ [R15Q]: the protein stability index came out at 3.35. In the case of YSLTTSSTHKRSSLLKVKLVRPPQ [R15L] it was 2.44; in that of YSLTTSSTHKRSSLCKVKLVRPPQ [R15C], 2.81. In the case of YSLTTSSTHKRSSLNKVKLVRPPQ [R15N] it was 2.94. On to YSLTTSSTHKRSSLKKVKLVRPPQ [R15K], for which the protein stability index came out at 3.24. On to YSLTTSSTHKRSSLWKVKLVRPPQ [R15W], for which the protein stability index stood at 2.12. The same measure for YSLTTSSTHKRSSLIKVKLVRPPQ [R15I]: 2.13; for YSLTTSSTHKRSSLEKVKLVRPPQ [R15E]: 3.25. The same measure for YSLTTSSTHKRSSLHKVKLVRPPQ [R15H]: 2.51; for YSLTTSSTHKRSSLYKVKLVRPPQ [R15Y]: 1.86. Consider YSLTTSSTHKRSSLVKVKLVRPPQ [R15V], for which the protein stability index worked out at 2.48. For the variant YSLTTSSTHKRSSLAKVKLVRPPQ [R15A], the protein stability index was 2.49. In the case of YSLTTSSTHKRSSLPKVKLVRPPQ [R15P] it was 3.47; in that of YSLTTSSTHKRSSLTKVKLVRPPQ [R15T], 3.02; in that of YSLTTSSTHKRSSLSKVKLVRPPQ [R15S], 2.95. For the variant YSLTTSSTHKRSSLGKVKLVRPPQ [R15G], the protein stability index amounted to 2.97. Regarding YSLTTSSTHKRSSLDKVKLVRPPQ [R15D], the protein stability index came to 3.54. The same measure for YSLTTSSTHKNSSLRKVKLVRPPQ [R11N]: 2.87; for YSLTTSSTHKISSLRKVKLVRPPQ [R11I]: 2.46; for YSLTTSSTHKSSSLRKVKLVRPPQ [R11S]: 2.77. YSLTTSSTHKQSSLRKVKLVRPPQ [R11Q]: the protein stability index was determined as 3.46. With YSLTTSSTHKVSSLRKVKLVRPPQ [R11V], the protein stability index came to 2.52. Consider YSLTTSSTHKLSSLRKVKLVRPPQ [R11L], for which the protein stability index worked out at 2.3. In the case of YSLTTSSTHKKSSLRKVKLVRPPQ [R11K] it was 3.17.

As for YSLTTSSTHKMSSLRKVKLVRPPQ [R11M], the protein stability index came out at 2.99.

Take YSLTTSSTHKYSSLRKVKLVRPPQ [R11Y]: the protein stability index stood at 2.51. The same measure for YSLTTSSTHKPSSLRKVKLVRPPQ [R11P]: 2.75.

YSLTTSSTHKWSSLRKVKLVRPPQ [R11W]: the protein stability index worked out at 1.87. YSLTTSSTHKTSSLRKVKLVRPPQ [R11T]: the protein stability index came to 3.67.
